Literature values, collected in PMC3433420.
Where two headings read alike, the source gives them in different places.

Legend:
Details in all cases: cited from earlier work
TENC1 (Homo sapiens) = TENC1 (Homo sapiens) (UniProt Q63HR2)
ABL2 (Homo sapiens) [1] = target: ABL2 (Homo sapiens) (UniProt P42684)
PIK3R1-NC (Homo sapiens) = PIK3R1-NC (Homo sapiens) (UniProt P27986)
CRKL (Homo sapiens) [2] = target: CRKL (Homo sapiens) (UniProt P46109)
NCK2 (Homo sapiens) [3] = target: NCK2 (Homo sapiens) (UniProt O43639)
NCK2 (Homo sapiens), sequence (O43639 280-380): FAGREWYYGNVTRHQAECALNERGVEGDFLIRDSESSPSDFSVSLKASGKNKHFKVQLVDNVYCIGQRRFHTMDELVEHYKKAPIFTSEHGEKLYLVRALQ

VAV2 (Homo sapiens) = VAV2 (Homo sapiens) (UniProt P52735)
VAV2 (Homo sapiens), sequence (P52735 668-772): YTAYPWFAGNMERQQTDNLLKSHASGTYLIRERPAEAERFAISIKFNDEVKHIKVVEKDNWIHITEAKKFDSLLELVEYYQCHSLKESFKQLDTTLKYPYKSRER

NCK1 (Homo sapiens) = NCK1 (Homo sapiens) (UniProt P16333)
SH2B2 (Homo sapiens) = SH2B2 (Homo sapiens) (UniProt O14492)
SH2B2 (Homo sapiens), sequence (O14492 412-520): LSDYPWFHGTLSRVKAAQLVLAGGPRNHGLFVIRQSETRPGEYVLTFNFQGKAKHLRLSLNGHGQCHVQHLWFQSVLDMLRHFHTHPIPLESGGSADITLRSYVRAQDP

PTK6 (Homo sapiens) = PTK6 (Homo sapiens) (UniProt Q13882)
PTK6 (Homo sapiens), sequence (Q13882 73-175): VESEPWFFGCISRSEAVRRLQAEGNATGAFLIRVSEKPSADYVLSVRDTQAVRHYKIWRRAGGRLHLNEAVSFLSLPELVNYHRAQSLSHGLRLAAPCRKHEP

HCK (Homo sapiens) = HCK (Homo sapiens) (UniProt P08631)
HCK (Homo sapiens), sequence (P08631 139-246): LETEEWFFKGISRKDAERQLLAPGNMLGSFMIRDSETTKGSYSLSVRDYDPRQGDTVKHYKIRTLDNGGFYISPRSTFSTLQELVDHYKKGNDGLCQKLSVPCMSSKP

PIK3R3-NC (Homo sapiens) [4] = target: PIK3R3-NC (Homo sapiens) (UniProt Q92569)
TXK (Homo sapiens) = TXK (Homo sapiens) (UniProt P42681)
TXK (Homo sapiens), sequence (P42681 145-251): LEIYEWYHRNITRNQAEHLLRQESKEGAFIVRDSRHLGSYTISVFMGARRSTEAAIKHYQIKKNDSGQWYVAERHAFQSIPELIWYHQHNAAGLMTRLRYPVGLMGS

PLCG1-NC (Homo sapiens) = PLCG1-NC (Homo sapiens) (UniProt P19174)
PLCG1-NC (Homo sapiens), sequence (P19174 545-761): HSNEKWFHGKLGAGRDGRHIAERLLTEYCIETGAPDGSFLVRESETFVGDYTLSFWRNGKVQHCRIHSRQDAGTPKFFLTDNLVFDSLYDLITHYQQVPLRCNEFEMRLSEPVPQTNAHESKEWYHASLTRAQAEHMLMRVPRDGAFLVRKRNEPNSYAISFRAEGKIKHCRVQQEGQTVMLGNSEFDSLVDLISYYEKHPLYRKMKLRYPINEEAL

SLA (Homo sapiens) = SLA (Homo sapiens) (UniProt Q13239)
RASA1-N (Homo sapiens) [5] = target: RASA1-N (Homo sapiens) (UniProt P20936)
RASA1-N (Homo sapiens), sequence (P20936 176-446): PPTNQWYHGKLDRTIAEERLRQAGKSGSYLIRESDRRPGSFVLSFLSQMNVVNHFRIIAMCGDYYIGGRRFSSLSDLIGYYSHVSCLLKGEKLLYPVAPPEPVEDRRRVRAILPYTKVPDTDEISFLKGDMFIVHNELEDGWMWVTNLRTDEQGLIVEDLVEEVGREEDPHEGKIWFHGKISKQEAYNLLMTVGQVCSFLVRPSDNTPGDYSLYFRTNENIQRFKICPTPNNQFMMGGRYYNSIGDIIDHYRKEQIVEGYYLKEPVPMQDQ

ABL1 (Homo sapiens) = ABL1 (Homo sapiens) (UniProt P00519)
ABL1 (Homo sapiens), sequence (P00519 122-222): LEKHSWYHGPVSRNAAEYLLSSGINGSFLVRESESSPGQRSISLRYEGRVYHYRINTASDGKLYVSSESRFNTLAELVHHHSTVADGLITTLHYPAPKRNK

PIK3R2-N (Homo sapiens) = PIK3R2-N (Homo sapiens) (UniProt O00459)
VAV3 (Homo sapiens) = VAV3 (Homo sapiens) (UniProt Q9UKW4)
PIK3R1-N (Homo sapiens) = PIK3R1-N (Homo sapiens) (UniProt P27986)
PIK3R1-N (Homo sapiens), sequence (P27986 328-723): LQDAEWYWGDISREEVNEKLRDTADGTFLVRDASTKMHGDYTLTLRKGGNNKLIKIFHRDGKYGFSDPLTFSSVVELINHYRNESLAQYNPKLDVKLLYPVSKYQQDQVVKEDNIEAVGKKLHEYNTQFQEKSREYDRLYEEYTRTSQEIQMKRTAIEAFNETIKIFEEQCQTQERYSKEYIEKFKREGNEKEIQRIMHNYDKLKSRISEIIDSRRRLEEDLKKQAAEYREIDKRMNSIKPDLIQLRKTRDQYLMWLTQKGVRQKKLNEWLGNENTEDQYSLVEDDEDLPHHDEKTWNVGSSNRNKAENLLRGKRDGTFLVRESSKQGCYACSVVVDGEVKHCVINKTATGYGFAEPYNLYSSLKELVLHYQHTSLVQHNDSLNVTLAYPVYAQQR

PIK3R3-N (Homo sapiens) = PIK3R3-N (Homo sapiens) (UniProt Q92569)
CRK (Homo sapiens) = CRK (Homo sapiens) (UniProt P46108)
CRK (Homo sapiens), sequence (P46108 8-123): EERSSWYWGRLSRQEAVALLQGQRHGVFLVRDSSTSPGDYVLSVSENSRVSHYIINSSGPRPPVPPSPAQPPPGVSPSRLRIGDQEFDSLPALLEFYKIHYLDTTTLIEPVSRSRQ

ZAP70-C (Homo sapiens) = ZAP70-C (Homo sapiens) (UniProt P43403)
SLA2 (Homo sapiens) = SLA2 (Homo sapiens) (UniProt Q9H6Q3)
SLA2 (Homo sapiens), sequence (Q9H6Q3 89-196): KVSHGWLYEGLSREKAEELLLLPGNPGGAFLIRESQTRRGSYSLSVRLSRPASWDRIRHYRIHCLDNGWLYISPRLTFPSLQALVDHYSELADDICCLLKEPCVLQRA

BCAR3 (Homo sapiens) [6] = target: BCAR3 (Homo sapiens) (UniProt O75815)
BCAR3 (Homo sapiens), sequence (O75815 149-258): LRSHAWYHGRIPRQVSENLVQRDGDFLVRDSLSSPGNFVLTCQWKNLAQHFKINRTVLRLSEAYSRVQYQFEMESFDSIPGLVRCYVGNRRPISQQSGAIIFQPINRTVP

TNS3 (Homo sapiens) = TNS3 (Homo sapiens) (UniProt Q68CZ2)
TNS3 (Homo sapiens), sequence (Q68CZ2 1167-1287): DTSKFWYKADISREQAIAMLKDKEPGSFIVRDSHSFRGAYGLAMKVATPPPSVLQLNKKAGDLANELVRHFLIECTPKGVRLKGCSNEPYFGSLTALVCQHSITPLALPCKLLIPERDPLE

SHC3 (Homo sapiens) = SHC3 (Homo sapiens) (UniProt Q92529)
PIK3R3-C (Homo sapiens) = PIK3R3-C (Homo sapiens) (UniProt Q92569)
PIK3R2-NC (Homo sapiens) = PIK3R2-NC (Homo sapiens) (UniProt O00459)
PIK3R2-C (Homo sapiens) = PIK3R2-C (Homo sapiens) (UniProt O00459)
PLCG1-C (Homo sapiens) = PLCG1-C (Homo sapiens) (UniProt P19174)
PLCG1-C (Homo sapiens), sequence (P19174 545-761): as the sequence (P19174 545-761) above

SHC1 (Homo sapiens) = SHC1 (Homo sapiens) (UniProt P29353)
SHC1 (Homo sapiens), sequence (P29353 483-583): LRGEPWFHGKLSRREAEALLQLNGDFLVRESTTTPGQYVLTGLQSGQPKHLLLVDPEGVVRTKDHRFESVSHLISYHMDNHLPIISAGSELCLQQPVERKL

VAV1 (Homo sapiens) = VAV1 (Homo sapiens) (UniProt P15498)
SRC (Homo sapiens) = SRC (Homo sapiens) (UniProt P12931)
GRB7 (Homo sapiens) = GRB7 (Homo sapiens) (UniProt Q14451)
GRB7 (Homo sapiens), sequence (Q14451 426-532): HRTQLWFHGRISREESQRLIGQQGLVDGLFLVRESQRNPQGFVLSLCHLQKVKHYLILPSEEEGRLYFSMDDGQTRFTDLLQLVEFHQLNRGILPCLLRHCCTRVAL

SYK-NC (Homo sapiens) [7] = target: SYK-NC (Homo sapiens) (UniProt P43405)
SYK-NC (Homo sapiens) [8] = target: SYK-NC (Homo sapiens) (UniProt P43405); remark: listed apart in the source
CRKL (Homo sapiens) [9] = target: CRKL (Homo sapiens) (UniProt P46109); remark: listed apart in the source
ABL2 (Homo sapiens) [10] = target: ABL2 (Homo sapiens) (UniProt P42684); remark: listed apart in the source
PIK3R3-NC (Homo sapiens) [11] = target: PIK3R3-NC (Homo sapiens) (UniProt Q92569); remark: listed apart in the source
SHC1-PTB (Homo sapiens) = SHC1-PTB (Homo sapiens) (UniProt P29353)
SHC1-PTB (Homo sapiens), sequence (P29353 483-583): as the sequence (P29353 483-583) above

NCK2 (Homo sapiens) [12] = target: NCK2 (Homo sapiens) (UniProt O43639); remark: listed apart in the source
BCAR3 (Homo sapiens) [13] = target: BCAR3 (Homo sapiens) (UniProt O75815); remark: listed apart in the source
RASA1-N (Homo sapiens) [14] = target: RASA1-N (Homo sapiens) (UniProt P20936); remark: listed apart in the source
BLK (Homo sapiens) = BLK (Homo sapiens) (UniProt P51451)
BLK (Homo sapiens), sequence (P51451 119-225): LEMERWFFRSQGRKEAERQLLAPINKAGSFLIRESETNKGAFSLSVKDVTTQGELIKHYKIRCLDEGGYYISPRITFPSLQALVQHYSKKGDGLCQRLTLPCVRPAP

PLCG2-NC (Homo sapiens) = PLCG2-NC (Homo sapiens) (UniProt P16885)

ABL2 (Homo sapiens), sequence (P42684 168-268): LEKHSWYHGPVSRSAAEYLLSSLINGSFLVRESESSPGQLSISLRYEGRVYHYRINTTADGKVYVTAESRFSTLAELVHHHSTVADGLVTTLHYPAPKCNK
CRKL (Homo sapiens), sequence (P46109 9-107): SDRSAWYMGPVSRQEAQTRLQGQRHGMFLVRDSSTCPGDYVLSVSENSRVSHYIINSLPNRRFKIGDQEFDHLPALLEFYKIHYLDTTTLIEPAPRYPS
PIK3R1-NC (Homo sapiens), sequence (P27986 328-723): as the sequence (P27986 328-723) above

…pYAAMGACP
apparent Kd (screen) (TENC1 (Homo sapiens)): 2000 nM
apparent Kd (screen) (ABL2 (Homo sapiens) [1]): 147 nM
apparent Kd (screen) (PIK3R1-NC (Homo sapiens)): 55 nM
apparent Kd (screen) (CRKL (Homo sapiens) [2]): 435 nM
apparent Kd (screen) (NCK2 (Homo sapiens) [3]): 550 nM
apparent Kd (screen) (VAV2 (Homo sapiens)): 300 nM
apparent Kd (screen) (NCK1 (Homo sapiens)): 208 nM
apparent Kd (screen) (SH2B2 (Homo sapiens)): 2000 nM
apparent Kd (screen) (PTK6 (Homo sapiens)): 440 nM
apparent Kd (screen) (HCK (Homo sapiens)): 581 nM
apparent Kd (screen) (PIK3R3-NC (Homo sapiens) [4]): 14 nM
apparent Kd (screen) (TXK (Homo sapiens)): 1670 nM
apparent Kd (screen) (PLCG1-NC (Homo sapiens)): 720 nM
apparent Kd (screen) (SLA (Homo sapiens)): 2000 nM
apparent Kd (screen) (RASA1-N (Homo sapiens) [5]): 906 nM
apparent Kd (screen) (ABL1 (Homo sapiens)): 2000 nM
apparent Kd (screen) (PIK3R2-N (Homo sapiens)): 120 nM
apparent Kd (screen) (VAV3 (Homo sapiens)): 1540 nM
apparent Kd (screen) (PIK3R1-N (Homo sapiens)): 528 nM
apparent Kd (screen) (PIK3R3-N (Homo sapiens)): 499 nM
apparent Kd (screen) (CRK (Homo sapiens)): 264 nM
apparent Kd (screen) (ZAP70-C (Homo sapiens)): 1440 nM
apparent Kd (screen) (SLA2 (Homo sapiens)): 2000 nM
apparent Kd (screen) (BCAR3 (Homo sapiens) [6]): 2000 nM
apparent Kd (screen) (TNS3 (Homo sapiens)): 1500 nM
apparent Kd (screen) (SHC3 (Homo sapiens)): 636 nM
apparent Kd (screen) (PIK3R3-C (Homo sapiens)): 499 nM
apparent Kd (screen) (PIK3R2-NC (Homo sapiens)): 78 nM
apparent Kd (screen) (PIK3R2-C (Homo sapiens)): 926 nM
apparent Kd (screen) (PLCG1-C (Homo sapiens)): 689 nM
apparent Kd (screen) (SHC1 (Homo sapiens)): 595 nM
apparent Kd (screen) (VAV1 (Homo sapiens)): 2000 nM
apparent Kd (screen) (SRC (Homo sapiens)): 1500 nM
apparent Kd (screen) (GRB7 (Homo sapiens)): 979 nM
apparent Kd (screen) (SYK-NC (Homo sapiens) [7]): 596 nM

…pYSEAKTPI
apparent Kd (screen) (SYK-NC (Homo sapiens) [8]): 923 nM
apparent Kd (screen) (CRKL (Homo sapiens) [9]): 1760 nM
apparent Kd (screen) (ABL2 (Homo sapiens) [10]): 71 nM
apparent Kd (screen) (PIK3R3-NC (Homo sapiens) [11]): 2000 nM
apparent Kd (screen) (SHC1-PTB (Homo sapiens)): 2000 nM
apparent Kd (screen) (NCK2 (Homo sapiens) [12]): 2000 nM
apparent Kd (screen) (BCAR3 (Homo sapiens) [13]): 1780 nM
apparent Kd (screen) (RASA1-N (Homo sapiens) [14]): 953 nM

…pYSEDPTVPd
apparent Kd (screen) (BLK (Homo sapiens)): 763 nM
apparent Kd (screen) (PLCG2-NC (Homo sapiens)): 1060 nM
